Measured values taken from patent US20210388102A1 (IMMUNOGEN, published 2021).
Residue numbers refer to the chain shown, from its start. In names and notes the source's numbering stands.

T1: cynomolgus monkey ADAM9 (cynoADAM9) on cells (cynomolgus monkey, UniProt Q13443 206-819 (human entry))
T1 construct: also called Cho-K/cynoADAM9 clone 2; Cho-K/cynoADAM9 clone #16
T1 chain: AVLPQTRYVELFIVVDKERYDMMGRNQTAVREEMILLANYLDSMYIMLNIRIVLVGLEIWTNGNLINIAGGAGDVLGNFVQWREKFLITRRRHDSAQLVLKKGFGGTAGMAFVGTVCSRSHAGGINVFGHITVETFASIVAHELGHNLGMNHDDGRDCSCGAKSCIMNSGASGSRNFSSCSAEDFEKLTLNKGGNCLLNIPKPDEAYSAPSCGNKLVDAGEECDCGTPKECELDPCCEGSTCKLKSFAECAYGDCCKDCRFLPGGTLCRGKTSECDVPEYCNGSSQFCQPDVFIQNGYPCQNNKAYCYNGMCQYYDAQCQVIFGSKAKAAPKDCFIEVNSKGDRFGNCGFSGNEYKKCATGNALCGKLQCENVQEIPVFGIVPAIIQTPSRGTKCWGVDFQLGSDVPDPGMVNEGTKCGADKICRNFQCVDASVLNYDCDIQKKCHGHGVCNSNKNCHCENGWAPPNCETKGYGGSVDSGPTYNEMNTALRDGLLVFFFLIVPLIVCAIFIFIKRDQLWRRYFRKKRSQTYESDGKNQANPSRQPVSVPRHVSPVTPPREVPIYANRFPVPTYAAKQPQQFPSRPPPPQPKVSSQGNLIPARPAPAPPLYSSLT

T2: human ADAM9 (huADAM9) on cells (human, UniProt Q13443 206-819)
T2 construct: The pro-domain is said to be cleaved (Arg-205/Ala-206) in the mature protein; also called Cho-K/huADAM9; Cho-K/hu ADAM9.2
T2 sequence: T1 chain with A69V, H130Q, D421G, I441V, R521S, V546G, P569A

T3: His-tagged soluble human ADAM9 (shADAM9-His) (human, UniProt Q13443 206-697)
T3 construct: Contains an extracellular portion of human ADAM9; also called huADAM9-His; His peptide-tagged soluble huADAM9
T3 sequence: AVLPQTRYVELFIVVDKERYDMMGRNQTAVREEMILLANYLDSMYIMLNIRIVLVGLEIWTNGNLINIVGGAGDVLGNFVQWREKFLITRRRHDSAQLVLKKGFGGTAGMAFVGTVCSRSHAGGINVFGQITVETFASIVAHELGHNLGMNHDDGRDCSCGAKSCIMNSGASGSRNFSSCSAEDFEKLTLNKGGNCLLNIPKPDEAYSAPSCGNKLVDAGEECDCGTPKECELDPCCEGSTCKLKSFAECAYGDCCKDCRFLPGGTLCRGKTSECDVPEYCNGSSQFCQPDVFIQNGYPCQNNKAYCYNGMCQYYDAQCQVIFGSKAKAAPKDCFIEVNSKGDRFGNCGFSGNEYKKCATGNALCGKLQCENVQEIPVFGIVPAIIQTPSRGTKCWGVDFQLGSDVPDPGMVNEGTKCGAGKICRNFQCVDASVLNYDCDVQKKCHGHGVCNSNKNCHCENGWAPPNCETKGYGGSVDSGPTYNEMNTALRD

B1: hMAB-A (2I.2) (antibody, human IgG1, kappa)
heavy: not shown
light: DIVMTQSPDSLAVSLGERATISCKASQSVDYSGDSYMNWYQQKPGQPPKLLIYAASDLESGIPARFSGSGSGTDFTLTISSLEPEDFATYYCQQSHEDPFTFGQGTKLEIKRTVAAPSVFIFPPSDEQLKSGTASVVCLLNNFYPREAKVQWKVDNALQSGNSQESVTEQDSKDSTYSLSSTLTLSKADYEKHKVYACEVTHQGLSSPVTKSFNRGEC
notes: Kappa light chain, wild-type IgG1 heavy chain constant regions; also called MAB-A VH(2I); MAB-A VH(2I.2)
B2: hMAB-A(2I.2)-sSPDB-DM4 (antibody, human IgG1, kappa)
heavy: not shown
light: B1 light
modifications: lysine-linked DM4, sites not given; DM4 linked through sulfo-SPDB to lysine residues of the antibody, sites not given; average 3.5 mol DM4/mol antibody
B3: hMAB-A(2I.2)-S442C (antibody)
heavy: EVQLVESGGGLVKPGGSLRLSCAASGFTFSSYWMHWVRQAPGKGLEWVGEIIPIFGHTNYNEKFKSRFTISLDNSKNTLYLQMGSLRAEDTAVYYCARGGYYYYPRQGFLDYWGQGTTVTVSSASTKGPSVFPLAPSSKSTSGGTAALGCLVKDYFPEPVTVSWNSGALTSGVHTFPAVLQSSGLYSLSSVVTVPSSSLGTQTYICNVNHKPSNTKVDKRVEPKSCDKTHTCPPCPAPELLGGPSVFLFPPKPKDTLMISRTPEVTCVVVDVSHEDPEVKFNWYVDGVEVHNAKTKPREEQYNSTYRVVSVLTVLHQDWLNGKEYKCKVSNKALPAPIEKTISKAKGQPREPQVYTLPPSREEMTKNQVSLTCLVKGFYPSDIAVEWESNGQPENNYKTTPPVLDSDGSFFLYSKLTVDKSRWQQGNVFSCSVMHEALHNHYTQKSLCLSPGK
light: B1 light
notes: IgG1 kappa with engineered Cys S442C (EU index); also called hMAB-A (2I.2)(C)
B4: hMAB-A (2I.2)(AA/C) (antibody)
heavy: EVQLVESGGGLVKPGGSLRLSCAASGFTFSSYWMHWVRQAPGKGLEWVGEIIPIFGHTNYNEKFKSRFTISLDNSKNTLYLQMGSLRAEDTAVYYCARGGYYYYPRQGFLDYWGQGTTVTVSSASTKGPSVFPLAPSSKSTSGGTAALGCLVKDYFPEPVTVSWNSGALTSGVHTFPAVLQSSGLYSLSSVVTVPSSSLGTQTYICNVNHKPSNTKVDKRVEPKSCDKTHTCPPCPAPEAAGGPSVFLFPPKPKDTLMISRTPEVTCVVVDVSHEDPEVKFNWYVDGVEVHNAKTKPREEQYNSTYRVVSVLTVLHQDWLNGKEYKCKVSNKALPAPIEKTISKAKGQPREPQVYTLPPSREEMTKNQVSLTCLVKGFYPSDIAVEWESNGQPENNYKTTPPVLDSDGSFFLYSKLTVDKSRWQQGNVFSCSVMHEALHNHYTQKSLCLSPGK
light: B1 light
notes: Last residue X is lysine or absent; also called L234A/L235A/S442C Fc variant of hMAB-A (2I.2)
B5: hMAB-A (2C.2) (antibody, human IgG1, kappa, V domains shown)
VH: EVQLVESGGGLVKPGGSLRLSCAASGFTFSSYWMHWVRQAPGKGLEWVGEIIPIFGHTNYNEKFKSRFTISLDNSKNTLYLQMGSLRAEDTAVYYCARGGYYYYPRFGWLDYWGQGTTVTVSS
VL: DIVMTQSPDSLAVSLGERATISCKASQSVDYSGDSYMNWYQQKPGQPPKLLIYAASDLESGIPARFSGSGSGTDFTLTISSLEPEDFATYYCQQSHEDPFTFGQGTKLEIKR
notes: IgG1 kappa; also called MAB-A VH(2C); MAB-A VH(2C.2)
B6: hMAB-A (2I.2)(AA) (antibody, human IgG1, kappa, L234A L235A)
heavy: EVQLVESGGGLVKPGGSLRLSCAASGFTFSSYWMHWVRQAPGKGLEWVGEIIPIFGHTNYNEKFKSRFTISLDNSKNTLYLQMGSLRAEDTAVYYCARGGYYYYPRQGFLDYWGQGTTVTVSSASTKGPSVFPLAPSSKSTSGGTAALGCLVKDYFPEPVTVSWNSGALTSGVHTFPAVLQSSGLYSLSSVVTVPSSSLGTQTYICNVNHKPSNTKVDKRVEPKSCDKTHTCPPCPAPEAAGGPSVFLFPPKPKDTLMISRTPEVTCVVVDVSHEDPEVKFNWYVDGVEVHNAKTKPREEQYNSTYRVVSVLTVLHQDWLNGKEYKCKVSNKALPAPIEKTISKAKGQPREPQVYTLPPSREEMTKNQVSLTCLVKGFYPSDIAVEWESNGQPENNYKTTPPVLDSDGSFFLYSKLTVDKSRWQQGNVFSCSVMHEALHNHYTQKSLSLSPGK
light: B1 light
notes: Last residue X is lysine or absent; also called L234A/L235A Fc variant of hMAB-A (2I.2)
B7: chMAB-A (antibody, V domains shown)
VH: QVQLQQPGAELVKPGASVKLSCKASGYTFTSYWMHWVKQRPGQGLEWIGEIIPINGHTNYNEKFKSKATLTLDKSSSTAYMQLSSLASEDSAVYYCARGGYYYYGSRDYFDYWGQGTTLTVSS
VL: DIVLTQSPASLAVSLGQRATISCKASQSVDYDGDSYMNWYQQIPGQPPKLLIYAASDLESGIPARFSGSGSGTDFTLNIHPVEEEDAATYYCQQSHEDPFTFGGGTKLEIK
notes: also called chimeric version of MAB-A; chimeric chMAB-A
B8: hMAB-A (1.1) (antibody, V domains shown)
VH: B5 VH with F55N, P105G, R106S, F107R, G108D, W109Y, L110F
VL: DIVMTQSPDSLAVSLGERATISCKASQSVDYDGDSYMNWYQQKPGQPPKLLIYAASDLESGIPARFSGSGSGTDFTLTISSLEPEDFATYYCQQSHEDPFTFGQGTKLEIK
notes: also called hMAB-A VH(1)/hMAB-A VL(1)
B9: hMAB-A (2.3) (antibody, V domains shown)
VH: B5 VH with P105G, R106S, F107R, G108D, W109Y, L110F
VL: B8 VL with K24R, D32S
notes: also called hMAB-A VH(2)/hMAB-A VL(3)
B10: hMAB-A (4.4) (antibody, V domains shown)
VH: B5 VH with M34I, K63R, K65Q, S66G, P105G, R106S, F107R, G108D, W109Y, L110F
VL: B8 VL with K24R, D32S, M37L, H96Y, E97S, D98T
notes: also called hMAB-A VH(4)/hMAB-A VL(4)
B11: hMAB-A (3.3) (antibody, V domains shown)
VH: B5 VH with K63R, K65Q, S66G, P105G, R106S, F107R, G108D, W109Y, L110F
VL: B8 VL with K24R, D32S
notes: also called hMAB-A VH(3)/hMAB-A VL(3)

Experiments:
[1] = target: T1, cynomolgus monkey ADAM9 (cynoADAM9) on …; assay: FACS, 300-19 cells expressing cynomolgus ADAM9
[2] = target: T2, human ADAM9 (huADAM9) on cells; assay: FACS, 300-19 cells expressing human ADAM9
[3] = target: T3, His-tagged soluble human ADAM9 …; assay: SPR (BIACORE), antibody captured, huADAM9-His in flow
huFcRn = target: T4, huFcRn (human, UniProt P55899 24-297; P61769 21-119, limits assumed); assay: SPR at pH 6.0: 250 nM and 1000 nM huFcRn passed over captured antibody
T4 construct: source and construct are not described; also called human FcRn

[4] = target: T1, cynomolgus monkey ADAM9 (cynoADAM9) on …; assay: FACS, EC50 on 300-19 cynoADAM9 cells over EC50 on 300-19 huADAM9 cells
[5] = target: T3, His-tagged soluble human ADAM9 …; assay: ELISA: His-tagged soluble huADAM9 (0.5 µg/mL) captured by plate-coated anti-His antibody; serial dilutions of antibody about 0.2-500 ng/mL; abs @450nm
[6] = target: T2, human ADAM9 (huADAM9) on cells; assay: cell-based or functional assay
[7] = target: T3, His-tagged soluble human ADAM9 …; assay: SPR (BIACORE), antibody captured on anti-human Fc, shADAM9-His 6.25-100 nM, 1:1 Langmuir

T4 sequence (P55899 24-297 limits assumed, chain 1 of 2): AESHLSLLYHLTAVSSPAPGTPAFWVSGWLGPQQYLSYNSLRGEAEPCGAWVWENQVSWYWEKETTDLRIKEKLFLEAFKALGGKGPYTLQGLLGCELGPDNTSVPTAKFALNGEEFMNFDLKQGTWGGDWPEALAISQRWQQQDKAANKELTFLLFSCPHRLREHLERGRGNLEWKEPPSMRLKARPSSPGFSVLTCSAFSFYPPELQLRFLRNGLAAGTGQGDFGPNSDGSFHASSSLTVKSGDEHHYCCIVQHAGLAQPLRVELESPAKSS
T4 sequence (P61769 21-119 limits assumed, chain 2 of 2): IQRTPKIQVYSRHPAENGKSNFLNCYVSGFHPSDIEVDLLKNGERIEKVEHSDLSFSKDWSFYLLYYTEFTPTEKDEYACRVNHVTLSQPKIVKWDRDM

Row | Binder | EC50 [1] | EC50 [2] | cyno/human (ratio of EC50) [4] | EC50 (read off the curve) [5] | Kd [7] | other results
1 | B1 | 4.1 nM | 1.49 nM | 3 | ~9 ng/mL |  | Kd [3]: 0.4 nM; koff [3]: 0.00023 s⁻¹; kon [3]: 660000 M⁻¹ s⁻¹; Kd (huFcRn): 3.4 µM
2 | B2 | 4.9 nM | 1.55 nM | 3 |  |  | Fold-specificity (IC50 control ADC/IC50 anti-ADAM9 ADC), A498 [6]: 30 fold; Fold-specificity (IC50 control ADC/IC50 anti-ADAM9 ADC), DLD-1 [6]: 63 fold; Fold-specificity (IC50 control ADC/IC50 anti-ADAM9 ADC), DU145 [6]: 32 fold; Fold-specificity (IC50 control ADC/IC50 anti-ADAM9 ADC), HPAF2 [6]: 13 fold; Fold-specificity (IC50 control ADC/IC50 anti-ADAM9 ADC), HS578T [6]: 20 fold; Fold-specificity (IC50 control ADC/IC50 anti-ADAM9 ADC), IGROV1 [6]: 8 fold; Fold-specificity (IC50 control ADC/IC50 anti-ADAM9 ADC), KATO III [6]: 11 fold; Fold-specificity (IC50 control ADC/IC50 anti-ADAM9 ADC), NCI-H1703 [6]: 132 fold; In Vitro Cytotoxicity (IC50 nM), A498 [6]: 0.108 nM; In Vitro Cytotoxicity (IC50 nM), DLD-1 [6]: 0.386 nM; In Vitro Cytotoxicity (IC50 nM), DU145 [6]: 0.439 nM; In Vitro Cytotoxicity (IC50 nM), HPAF2 [6]: 0.422 nM; In Vitro Cytotoxicity (IC50 nM), HS578T [6]: 0.094 nM; In Vitro Cytotoxicity (IC50 nM), IGROV1 [6]: 1.41 nM; In Vitro Cytotoxicity (IC50 nM), KATO III [6]: 0.48 nM; In Vitro Cytotoxicity (IC50 nM), NCI-H1703 [6]: 0.028 nM
3 | B3 | 3.8 nM | 1.33 nM | 3 | ~9 ng/mL |  | 
4 | B4 |  |  |  | ~9 ng/mL |  | 
5 | B5 | 3.8 nM | 1.22 nM | 3 |  |  | Kd [3]: 1.4 nM; koff [3]: 0.00081 s⁻¹; kon [3]: 590000 M⁻¹ s⁻¹
6 | B6 |  |  |  | ~9 ng/mL |  | 
7 | B7 | 112 nM | 0.41 nM | 273 |  | 3.6 nM | 
8 | B8 |  |  |  |  | 3.5 nM | 
9 | B9 |  |  |  |  | 1.3 nM | 
10 | B10 |  |  |  |  | 2 nM | 
11 | B11 |  |  |  |  | 1.4 nM | 
